Source: the DeepSol protein solubility set

Assay: soluble on expression in E. coli; label from the status in PepcDB or PDB records

Row | Sequence | soluble on expression in E. coli
1 | MGPGTTVRWRRRVSGWRRAGCAALIAGAVALPLSGAARPEIPAPPPAALAAPTAATLDKAYAANRANAAEASRMAADHGDRHRAAADRAMADRSRRLLAFDGRGTGLATEVFGDLARADRVAVLVPGSDTGLDTYGRFRATALALHRQLVAEAPAGTRTAVVAWLGYETPGTVSTTVATTDRADRAAPELRALVGDLRRITGPGTRLALLCHSYGSVVCARAADGLEVADIALVGSPGTGADTAAGLHSEARVWAGRGAEDWVEHVPHVSADLFGTTVGFGTDPVSPAFGARVFDAGDGGHSDYFDPGSRSLTNLARIALGETTEVTHALEHHHHHH | not soluble
2 | MGQCRSANAEDAQEFSDVERAIETLIKNFHQYSVEGGKETLTPSELRDLVTQQLPHLMPSNCGLEEKIANLGSCNDSKLEFRSFWELIGEAAKSVKLERPVRGH | soluble
3 | MGQDRGFGFPTQRLCSLSSLALSHLGKQDLNLVSKTCGDTTDMFSTRGSYQVSTQVSQSYFDGYCGWVHGSSHLQQQFLPPQNQCMKQVPLQVDGVISKAEEQCSQKRFLVFDQSGDQTTLLLASDIRKSFETLKQHACPDMKEELQRSNKDLFVCHGMQGNSEPDLKEDSEELNALLYSEDESGYCSEEDEVTSADHSPSIVVSGREDQKTFLGSYGQPLNAKKRKILETSNESMRDAESSCGSCDNTRISFLKRSKLSSNKIGEEKIFETVSLLRSVVPGEELVDPILVIDRAIDYLKSLKMEAKNREA | soluble
4 | MGQSFSSSFNAKQTSSSTPQKSTKTPTCSDPRSPSQDIERTPIQVKTVENDENGSSESSTTKADKPRKTSLRQKMFARKKNMNSETDE | not soluble
5 | MGRCYNNIVIDASIEAVWQQIGNFHDMSWAKGVITSLVKVGPASGTEVGAKRILNDAIHETLVSLDSSNYTFTYSIDDGPDAIAKSAVDNYLGMVNLSESSTGVLVEWSSSFTSDNEKAVTEFCDPIYMALLGALKNSLRLEHHHHHH | soluble
6 | MGRFAVYEDPFVTKLMNTIGSMTFDGLGFTLLELYRDLVISADNYFMNYVNYGETPHDVGEESIEDPIYGASYPYWWTDLGPTLVLMLYRDYVFTSNREILEKNYNKIKEIIDWLIRKDMDNDCIPDSKGGYDNSYDGTHMYGASSYIASMFLSALTAFIKMSEILDVKIDDKYYRFLECGKKTFNSLWNGKYFILWKKNDEENTSCLNSQLLGQFWCDILGLPPITDHDKINTALRSIYELNFKASKYCLTNAVREDGSVDSSTAQLRSCWPRVSFAVAAHMILRGMVKEGIEVAKREWETIKELNPFDQSSRIDAIDGKYVGLMSYIGSTSVWLLKLALDKIRLEHHHHHH | soluble
7 | MGRHLRLPSGTKLIVARNQGEVNFLKGFRNRYNYAYRKDGKGTFALIKGNPPEEELQLIADIIARYSKNEPAKVGIHLNGKEIELIGNPPSDEFLEQFKIYAKKEVGHGR | not soluble
8 | MGRKWNNIKEKKASKDANTSRIYAKFGREIYVAAKQGEPDPESNQALKVVLERAKTYSVPKNIIERAIEKAKGGAEENYDELRYEGFGPNGSMIIVDALTNNVNRTAPEVRAAFGKNGGNMGVSGSVAYMFDATAVIVVEGKTADEALEILMEADVDVRDILEEDDSAKSCYAEPDQFHAVQEAFKNAGVEEFTVAELQMLAQSEVTLPDDAKEQFEKLIDALEDLEDVQQVYHNVDLGELEHHHHHH | soluble
9 | MGRLDGKVIILTAAAQGIGQAAALAFAREGAKVIATDINESKLQELEKYPGIQTRVLDVTKKKQIDQFASEVERLDVLFNVAGFVHHGTVLDCEEKDWDFSMNLNVRSMYLMIKAFLPKMLAQKSGNIINMSSVASSVKGVVNRCVYSTTKAAVIGLTKSVAADFIQQGIRCNCVCPGTVDTPSLQERIQARGNPEEARNDFLKRQKTGRFATAEEIAMLCVYLASDESAYVTGNPVIIDGGWSL | not soluble
10 | MGRSHHHHHHGSLVPRGSEQGSNVNHLIKVTDQSITEGYDDSDGIIKAHDAENLIYDVTFEVDDKVKSGDTMTVNIDKNTVPSDLTDSFAIPKIKDNSGEIIATGTYDNTNKQITYTFTDYVDKYENIKAHLKLTSYIDKSKVPNNNTKLDVEYKTALSSVNKTITVEYQKPNENRTANLQSMFTNIDTKNHTVEQTIYINPLRYSAKETNVNISGNGDEGSTIIDDSTIIKVYKVGDNQNLPDSNRIYDYSEYEDVTNDDYAQLGNNNDVNINFGNIDSPYIIKVISKYDPNKDDYTTIQQTVTMQTTINEYTGEFRTASYDNTIAFSTSSGQGQGDLPPEK | soluble
11 | MGRTSKDKRDVYYRLAKENGWRARSAFKLLQLDKEFQLFQGVTRAVDLCAAPGSWSQVLSQKIGGQGSGHVVAVDLQAMAPLPGVVQIQGDITQLSTAKEIIQHFKGCPADLVVCDGAPDVTGLHDVDEYMQAQLLLAALNIATHVLKPGGCFVAKIFRGRDVTLLYSQLQVFFSSVLCAKPRSSRNSSIEAFAVCQGYDPPEGFIPDLSKPLLDHSYDPDFNQLDGPTRIIVPFVTCGDLSSYDSDRSYPLDLEGGSEYKYTPPTQPPISPPYQEACTLKRKGQLAKEIRPQDCPISRVDTFPQPLAAPQCHTLLAPEMEDNEMSCSP | soluble
12 | MGSDKIHHHHHHAAIIFAFLYFTNNHKTDLESTISEQWNKITTFFSNDFSLPDTMSKLSTDNYKHEAGSRWSQNSASVYIASTDKTIVKAYQTALANWNATGSFTFNIISDKASADITAKDYSDVNSQAAGLAETETNAVTNRMSHVDVKLNRYYLLDASYGYSFDRIVHTAEHELGHAIGLDHDDKETSVMASSGSYNGIQTVDITAVKKLYAN | not soluble
13 | MGSDKIHHHHHHACTGSSQKEKPACVNTPVEPFTGLPVFDLQEQYPEKEIILQDIADVRYVVLETGDSSLVGIRPILMTDSFLVTVNKKSDVIFFDKSGKYLHSFNHTSMSGEEYGDIVSGYCIDEKAREIFIYDGLQSRIQVYGYGGAYRRTLKLPQNRMFASSIFEYDENFLFGEDYRLVDSQIGKYPVNKTPYYKISKKDGKLTSIPITVKERIRDGLSYTVGDGAFGYVSLLMSPVARFGSDILIADYSLDTAYVYRDDHLIPLTVRRNHTSENNIPILATVDVMTGRYLLWYTIVKDIDVKNNRVSDPVSYLYDRFTNEYCRVDLVNRDVVSATNIPAFQMRLSANYHVVPENYAIQYYPAEELIELNGQGKLKGELKEIASKLNDEDNPVLLIAKFKE | not soluble
14 | MGSDKIHHHHHHADDDKPIQVSQMPQKAQQFIKQHFAGSNIAMAKVESDFLQKSYDVIFTDGNKVEFDKKGNWTEVNCKFSVVPQGIIPSPIQKYTATNYPDAKVLKIERDKTDYEVKLSNGWELKFDSKFNLIDIDN | not soluble
15 | MGSDKIHHHHHHAEKLSDGKVKLGVLTDMTGYYADLAGPGSVVAARMAVEDFGGKVLGKPVELVSADHQLKADVASNIARKWIDEGQVDAIVDLVSSSTAGAVMPVAAEKKRITLLSGPGTTAFTGEKCTRYNVHYTYNNWALANGTGREVVKQGGDSWFFLTADYIFGKSLEEDTTKVVKAAGGKVLGAARYPSPGTTDFSSYLLQAQGSGAKIVGLANAGADTVNSIRQAEEFGVTPKQSLAGLLVFITDVHSLGLEAAKGMYLTTAFYWDLNDETRKWSRRFFQKHGKMPTMVQAGVYSSVMHYLKAVQAAGTDDADAVMAKMRETPVNDFFAKNARIGPDGLLRHDMYLARVKAPKDSKQPWDYYQIVKTIPAAEAFPSVEAQACPLAKR | not soluble
16 | MGSDKIHHHHHHAEVDQATKPAEAKYYIAGTITDATTGQELTTAKVTLGDKSVTSSFNEQVNYKAEGYALVVSADGYYPVKRQVYLNQVSDGQTSVATVNVALVSVEAAVIPPVVPPTDPETDINEGEATKVADKAVEVAKPSESTVTDMLAGTTATPEEKKALDETLEMAGGMKVGETTPEVLADGSILAITPVKFTNPIQDAPAMVPYFYNEGCELTGDVKEVAAPVTRADGAVAADIQKAFLSNAAKALNMNAGFVQKIGYTRISVLNGYSILGYTIKGQLVSKKLTFLISGKYYEGIVSYQKSVMIYPNYYSHDSHDSHDSHGFNPNAGGGSND | not soluble
17 | MGSDKIHHHHHHAIGFGLSYGTEIESIGLGLKYQYNITNPIRLEPSLNYFIENDNVSMLDINMNLHYLCPVGRSVKLYPLFGFTFSNWMFDLGDGFDIDVDGDHIHIDKDDDNHNECRVGVNIGGGADFALTSSWIMNFELRYQLVSDFDQAVFNLGFAYRF | not soluble
18 | MGSDKIHHHHHHAKSYSKAVTKIAGTKNYPIYHKVTKNGPSGKFTSTSYFKYGQIQSKQYVSTKKGNFWNIIVDGRPVGWVSENCFARNTISVANDVSLVKNSDYSFNTRDAINYATDSHGTAIDPDRVQVSQASVSTKATTVNYSYGKAKASVNIDVRSGNDEMGEANVTPKSGFKTTTTWNGGSKGSSRNWNAAHHYTSETTSNTFKSNGLTLRTRLFQPRFVSLGYGQSADKMGQVGVIPEGMTVNGGIFATSMFTSSSDQHGHIVSYNLNTIKSKYAVQNLTTMNWSTFKSYANNIKVSPYIKLGHGQSLGSSSDYIYVMANDNNYNNGPRSEEIIQIRKSDMKINKIWTFRIAENRYIHNATFVGDNTMYALFHNGGHNHYEYWKLTRNGDSWKATEVGATAGSFVSNSPVQGFAYGNGSFFIGFNDNIFKVSENGAAQKHYRFNTGREIEGLSANGSDLYVQFAQRAELTQGRF | not soluble
19 | MGSDKIHHHHHHAMSNKPVVLQGQIEATEIRISGKLPGRIDTFLVREGQYVKMGDTLVVINSPEAWAKFQQVNALEDIAKFQNKKIDDGTRRQIVRSVEELWNKSKSDLQLATVTYDRIQALYKDSVVTSQRKDEVEAMYKAAVAAERAAHQQFLLVKDGAQKEDKESARSLVDAARGTVNEVQALLMDARLTAPEDGQISTIYPKRGELVGAGTPIMSLVVLDDCHVVLNVREDYMPYFRMNENFMGDIPALDVKNKAFKINYISPLGSFATWRSTKQTGTYDMKTFEIHALPVEPMEGLRPGMSVLVNLDELK | not soluble
20 | MGSDKIHHHHHHAQEERNQGIIWSYLHGWEYGIKAGFSIGGTSPLPLPEEIRKIDSYAPGGLAISIEGNATKWFDTKWGMTVGVRLENKNMTTEATVKNYGMKIINTNGGELQGLWTGGVKTKVKNSYLTIPVVANYKVSKRWKVSAGPYVSYLIERNFSGHVYEGHLRTPDQTGSRVDFTGESIATYDFSDNLRKFQWGLQLGGEWRAFKHLNVYADLTWGLNDIFKKDFDTISFAMYPIYLNIGFGYAF | not soluble
21 | MGSDKIHHHHHHAQETIPDVEVSTMDMWVKETRSVSEYLNMPVLHFKDEQVYSETLRQLKNMTENERFTYFQQLGFEGAYILWEQADRELDKIFDMESDDSHLIQEMINTYKDKYSDIFSFNTVDLFDVTPYFTFTDNDLSLLGNIKGYVVIGNSLRGPKYDYPTYDLDEVVSATRAAEPTPIEPGFKGFKDASLTIKNGKYKSTMTIGRIVNGNSFAVEFKTKKKQLFWKKSVKAGYSAMLTMKSSKFNYKNTVFCPYGKEVSILNLPIERVGNVFDAVVENFKSSRGDAKGNQSFHNIRVI | not soluble
22 | MGSDKIHHHHHHAQETLRENNGEPTLVERLSNGEIKINSAEMNFQLFTSANAEFVGNELDGMNFKLNRVRLEIKGDVGKWLGYHYRQSFNKYSDPYSLDNLSSSLELAYVNLKARPNLNFTIGKQFVNFGGYEYYVNSIRVREFSEFNNLLTAYQAGISGNWQVSPDHELCFQIVNNRNGNDEDIYPTGLPEGTAKAKIPFMYTVNWNSYYLDKSLQLRYATAVGQQTRKRYSYYFTCGNTYEKGPLLTYLDVMYTRQGIDQHGVVSRLPGTPHTAMNTEYLSIIGDVDYRVHPQWNVYVKGAYETARVYKGNGDFRKGMYRRSWNAQSSVEFFPFKQLDLFVFVLYTYRGVILEKAATRMGAIEPDTHRISLGLVYSIPVF | not soluble
